Source: the supplement of paper PMC10567573

B1: TNNI2 (parent)
chain: DWRKNIEEKSGMEGRKKMFESES

Variants of: B1
Assay: protein stability index of a GFP-peptide fusion (GPS, HEK-293T) (PSI 1-6); higher = more stable
Settings: c terminus: native
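Also: lentivirally expressed fusions sorted by FACS into six bins by GFP to DsRed ratio, PSI derived from sequencing read proportions per bin multiplied by bin number.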

Variant | protein stability index
LWRKNIEEKSGMEGRKKMFESES [D1L] | 1.9
MWRKNIEEKSGMEGRKKMFESES [D1M] | 1.57
YWRKNIEEKSGMEGRKKMFESES [D1Y] | 2.24
KWRKNIEEKSGMEGRKKMFESES [D1K] | 2.01
FWRKNIEEKSGMEGRKKMFESES [D1F] | 1.9
IWRKNIEEKSGMEGRKKMFESES [D1I] | 2.63
VWRKNIEEKSGMEGRKKMFESES [D1V] | 2.37
TWRKNIEEKSGMEGRKKMFESES [D1T] | 2.37
NWRKNIEEKSGMEGRKKMFESES [D1N] | 2.79
GWRKNIEEKSGMEGRKKMFESES [D1G] | 2.28
AWRKNIEEKSGMEGRKKMFESES [D1A] | 2.91
QWRKNIEEKSGMEGRKKMFESES [D1Q] | 2.65
DWRVNIEEKSGMEGRKKMFESES [K4V] | 3.15
DWRHNIEEKSGMEGRKKMFESES [K4H] | 2.62
DWRDNIEEKSGMEGRKKMFESES [K4D] | 3.23
DWRGNIEEKSGMEGRKKMFESES [K4G] | 3.03
DWRLNIEEKSGMEGRKKMFESES [K4L] | 2.82
DWRINIEEKSGMEGRKKMFESES [K4I] | 2.13
DWRCNIEEKSGMEGRKKMFESES [K4C] | 2.32
DWRNNIEEKSGMEGRKKMFESES [K4N] | 3.23
DWRTNIEEKSGMEGRKKMFESES [K4T] | 2.98
DWRQNIEEKSGMEGRKKMFESES [K4Q] | 3.21
DWRANIEEKSGMEGRKKMFESES [K4A] | 3.61
DWRSNIEEKSGMEGRKKMFESES [K4S] | 3.03
DWRFNIEEKSGMEGRKKMFESES [K4F] | 2.37

Variant | protein stability index
DWRWNIEEKSGMEGRKKMFESES [K4W] | 2.13
DWRYNIEEKSGMEGRKKMFESES [K4Y] | 2.56
DWRENIEEKSGMEGRKKMFESES [K4E] | 2.59
DWRMNIEEKSGMEGRKKMFESES [K4M] | 3.39
DWRPNIEEKSGMEGRKKMFESES [K4P] | 2.61
DWQKNIEEKSGMEGRKKMFESES [R3Q] | 2.84
DWEKNIEEKSGMEGRKKMFESES [R3E] | 2.48
DWVKNIEEKSGMEGRKKMFESES [R3V] | 2.08
DWIKNIEEKSGMEGRKKMFESES [R3I] | 2.19
DWYKNIEEKSGMEGRKKMFESES [R3Y] | 1.64
DWTKNIEEKSGMEGRKKMFESES [R3T] | 2.48
DWSKNIEEKSGMEGRKKMFESES [R3S] | 2.04
DWLKNIEEKSGMEGRKKMFESES [R3L] | 1.74
DWKKNIEEKSGMEGRKKMFESES [R3K] | 2.34
DWDKNIEEKSGMEGRKKMFESES [R3D] | 2.63
DWMKNIEEKSGMEGRKKMFESES [R3M] | 3.28
DWGKNIEEKSGMEGRKKMFESES [R3G] | 1.61
DWPKNIEEKSGMEGRKKMFESES [R3P] | 1.84
DWAKNIEEKSGMEGRKKMFESES [R3A] | 2.09
DWHKNIEEKSGMEGRKKMFESES [R3H] | 2.88
DWFKNIEEKSGMEGRKKMFESES [R3F] | 2.06
DWNKNIEEKSGMEGRKKMFESES [R3N] | 2.48
DWRKNIEEKSQMEGRKKMFESES [G11Q] | 1.18
DWRKNIEEKSKMEGRKKMFESES [G11K] | 3.5
DWRKNIEEKSLMEGRKKMFESES [G11L] | 2.77

Variant | protein stability index
DWRKNIEEKSRMEGRKKMFESES [G11R] | 2.35
DWRKNIEEKSSMEGRKKMFESES [G11S] | 2.6
DWRKNIEEKSDMEGRKKMFESES [G11D] | 1.99
DWRKNIEEKSNMEGRKKMFESES [G11N] | 1.94
DWRKNIEEKSMMEGRKKMFESES [G11M] | 1.9
DWRKNIEEKSTMEGRKKMFESES [G11T] | 1.58
DWRKNIEEKSAMEGRKKMFESES [G11A] | 2.57
DWRKNIEEKSCMEGRKKMFESES [G11C] | 1.52
DWRKNIEEKSHMEGRKKMFESES [G11H] | 1.76
DWRKNIEEKSVMEGRKKMFESES [G11V] | 2
DWRKNIEEKSYMEGRKKMFESES [G11Y] | 1.45
DWRKNIEEKSEMEGRKKMFESES [G11E] | 3.21
DTRKNIEEKSGMEGRKKMFESES [W2T] | 2.32
DLRKNIEEKSGMEGRKKMFESES [W2L] | 2.85
DYRKNIEEKSGMEGRKKMFESES [W2Y] | 2.93
DQRKNIEEKSGMEGRKKMFESES [W2Q] | 3.67
DSRKNIEEKSGMEGRKKMFESES [W2S] | 2.69
DNRKNIEEKSGMEGRKKMFESES [W2N] | 2.25
DDRKNIEEKSGMEGRKKMFESES [W2D] | 3.12
DERKNIEEKSGMEGRKKMFESES [W2E] | 3.25
DMRKNIEEKSGMEGRKKMFESES [W2M] | 3.08
DCRKNIEEKSGMEGRKKMFESES [W2C] | 2.88
DPRKNIEEKSGMEGRKKMFESES [W2P] | 3.59
DIRKNIEEKSGMEGRKKMFESES [W2I] | 2.53
DVRKNIEEKSGMEGRKKMFESES [W2V] | 2.96

Variant | protein stability index
DGRKNIEEKSGMEGRKKMFESES [W2G] | 2.51
DKRKNIEEKSGMEGRKKMFESES [W2K] | 1.95
DHRKNIEEKSGMEGRKKMFESES [W2H] | 2.95
DFRKNIEEKSGMEGRKKMFESES [W2F] | 2.55
DWRKNIEWKSGMEGRKKMFESES [E8W] | 1.52
DWRKNIEHKSGMEGRKKMFESES [E8H] | 2.09
DWRKNIEIKSGMEGRKKMFESES [E8I] | 2.41
DWRKNIEKKSGMEGRKKMFESES [E8K] | 2.74
DWRKNIENKSGMEGRKKMFESES [E8N] | 3.61
DWRKNIEQKSGMEGRKKMFESES [E8Q] | 2.17
DWRKNIERKSGMEGRKKMFESES [E8R] | 1.84
DWRKNIEPKSGMEGRKKMFESES [E8P] | 3.03
DWRKNIESKSGMEGRKKMFESES [E8S] | 1.99
DWRKNIEYKSGMEGRKKMFESES [E8Y] | 2.16
DWRKNIEMKSGMEGRKKMFESES [E8M] | 1.5
DWRKNIECKSGMEGRKKMFESES [E8C] | 1.63
DWRKNIEFKSGMEGRKKMFESES [E8F] | 2.06
DWRKNIETKSGMEGRKKMFESES [E8T] | 2.17
DWRKNIEGKSGMEGRKKMFESES [E8G] | 2.06
DWRKNIELKSGMEGRKKMFESES [E8L] | 2.47
DWRKNIEAKSGMEGRKKMFESES [E8A] | 2.2
DWRKNIEVKSGMEGRKKMFESES [E8V] | 2.66
